# What was measured:
# [1] = tested on: recombinant mouse Kip1 with a C-terminal hexahistidine sequence (expressed in BL21(DE3) bacteria from pET21a)
# [2] = molecular target: human cyclin A-Cdk2 complex (baculovirally expressed) (human) (UniProt P20248); assay: cell-based or functional assay
# [3] = molecular target: His-cyclin E-Cdk2 complex (baculoviral human cyclin E with N-terminal hexahistidine, in complex with baculoviral Cdk2) (human) (UniProt P24864); assay: cell-based or functional assay
# [4] = tested on: Kip1 (28-79), 52-amino acid peptide with a C-terminal hexahistidine tag
# Sequence of Kip1 (28-79), 52-amino acid peptide with a C-terminal hexahistidine tag (chain, as listed by the source): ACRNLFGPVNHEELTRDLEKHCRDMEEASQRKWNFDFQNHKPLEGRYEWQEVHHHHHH
# Sequence of recombinant mouse Kip1 with a C-terminal hexahistidine sequence (expressed in BL21(DE3) bacteria from pET21a) (chain, as listed by the source): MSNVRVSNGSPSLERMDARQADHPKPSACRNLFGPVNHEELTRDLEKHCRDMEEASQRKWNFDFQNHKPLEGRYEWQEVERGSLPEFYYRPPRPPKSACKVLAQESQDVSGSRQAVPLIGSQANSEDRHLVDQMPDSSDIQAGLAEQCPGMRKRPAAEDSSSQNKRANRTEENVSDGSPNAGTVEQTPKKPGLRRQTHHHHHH
substance,measurement,setting,value
cyclin E-Cdk2 complexes assembled in A549 cell extracts (added histidine-tagged baculoviral cyclin E with the endogenous Cdk2),cyclin E-associated histone H1 kinase activity and Thr160-phosphorylated form of Cdk2 on western blot,[1],Addition of histidine-tagged Kip1 to the cell extracts markedly decreased the level of cyclin E-associated kinase activity
recombinant mouse Kip1 with a C-terminal hexahistidine sequence (expressed in BL21(DE3) bacteria from pET21a) (from UniProt P46414 1-197),"histone H1 kinase activity, concentration for complete inhibition",[2],8 fold
same,"histone H1 kinase activity, half-maximal inhibition",[3],0.5 nM
human cyclin A-Cdk2 complex (baculovirally expressed),Rb phosphorylation,[4],This peptide inhibited Rb phosphorylation by cyclin A-Cdk2 with a potency that was close to that of full length Kip1
same,Rb kinase activity (phosphorylation of a GST-Rb fusion product),[1],"Addition of Kip1 to cyclin E-Cdk2, cyclin A-Cdk2 or cyclin D2-Cdk4 complexes inhibited their ability to phosphorylate a GST-Rb fusion product"
"His-cyclin E-Cdk2 complex (baculoviral human cyclin E with N-terminal hexahistidine, in complex with baculoviral Cdk2)",Rb phosphorylation,[4],inhibited cyclin E-Cdk2 or cyclin D2:Cdk4 less effectively
same,Rb kinase activity (phosphorylation of a GST-Rb fusion product),[1],"Addition of Kip1 to cyclin E-Cdk2, cyclin A-Cdk2 or cyclin D2-Cdk4 complexes inhibited their ability to phosphorylate a GST-Rb fusion product"
